The target of data set [1] is T1, cdMMP-12 wt (Homo sapiens, UniProt P39900).
T1 construct: hexahistidine (C); made in house; host or cells: E. coli BL21 (pET32b, cytoplasmic)
As to the kind of experiment: Proteolytic stability of Fabs with cdMMP-12 wt. It counts as physicochemical. The conditions noted are these: 2 μM Fab, 2 μM cdMMP-12 wt, 4 h, 37° C. As to the method: (§1) Proteolytic stability tests 2 μM purified Fabs were incubated with 2 μM cdMMP-12 wt/D4 in 50 mM HEPES, 150 mM NaCl pH 7.5 at 37° C. for 4 h. Samples were analyzed by using 12% non-reducing SDS-PAGE and stained with Coomassie blue. Densitometric interpretation was conducted using a ChemiDoc imager (Bio-Rad).

Data set [2] addresses T1, cdMMP-12 wt. The data set is described as follows: FRET peptide inhibition assay, cdMMP-12 wt. The conditions noted are these: toward cdMMP-12 wild type. It counts as biochemical. As to the method: (§2) FRET peptide inhibition assays In 96-well assay plates (Corning), 60/250/350/10/10/30 nM of (cd)MMP-1/-7/-9/-12 D4/-12 wt/-14 were preincubated with 1 nM-1 μM purified Fabs for 30 min at room temperature then 1 μM substrate M-2350 (Bachem) was added. Generated fluorescent signals (λEx=328 nm, λEm=393 nm) were monitored at 37° C. to measure the initial velocities. To calculate inhibition constants (KIs), data were fit with the equations for slow tight-binding inhibitors. The inhibition type of the Fabs was determined using the initial velocities of cdMMP-12 D4 as a function of substrate concentration (250-2000 nM) at various Fab concentrations (31-500 nM). The values of Vmax and Km were derived from linearization in accordance with the Lineweaver-Burk equation.

Data set [3] addresses T1, cdMMP-12 wt. As to the kind of experiment: Inhibition of proteolysis of modified TEM-1 ([…]) by cdMMP-12 wt. It counts as biochemical. The conditions noted are these: 10 μM Fab, 700 nM cdMMP-12 wt, 250 nM modified TEM-1, 4 h. As to the method: Inhibition tests with macromolecular substrates 10 μg/mL FITC-conjugated elastin (AnaSpec) was incubated with 7 nM cdMMP-12 D4/wt and 2-2000 nM purified Fab in 50 mM Tris-HCl, 150 mM NaCl, 5 mM CaCl2), 100 μM ZnCl2 pH 7.5. Generated fluorescent signals were measured at 12 h with λEx of 490 nm and λEm of 520 nm. For inhibition assays on fibronectin, 200 nM fibronectin (Corning) was incubated with 200-350 nM cdMMP-12 wt and 2 μM GM6001 or 0.1-6 μM Fabs in 50 mM HEPES, 150 mM NaCl pH 7.5 at 37° C. for 2-4 h. The samples were separated on 5% non-reducing SDS-PAGE and analyzed by western blotting with anti-Fibronectin antibody (Abcam) and chemiluminescent substrate (Thermo Scientific). For inhibition assays on modified TEM-1 carrying cleavable sequence ([…] (SEQ ID NO:134)) and a N-terminal HA tag, 250 nM modified TEM-1 was incubated with 700 nM cdMMP-12 wt and 10 μM Fabs in 50 mM HEPES, 150 mM NaCl pH 7.5 at 37° C. for 4 h. The samples were separated on 12% non-reducing SDS-PAGE, and the modified TEM-1 was visualized by western blotting using anti-HA antibody (Invitrogen) and chemiluminescent substrate. Assays without cdMMP-12s or Fabs were performed as controls.

Data set [4] deals with T2, cdMMP-12 mutant D4 (Homo sapiens, UniProt P39900, A167E/A173P/A252Q/H206S/I245T/K233R/M156E/N119Q/N126H/R135E/T215V/V161I/Y113D/Y132K).
T2 construct: hexahistidine (C); made in house; host or cells: E. coli BL21, pET32b (cytoplasmic, soluble fraction)
T2 sequence (P39900 106-263 Y113D/N119Q/N126H/Y132K/R135E/M156E/V161I/A167E/A173P/H206S/T215V/K233R/I245T/A252Q): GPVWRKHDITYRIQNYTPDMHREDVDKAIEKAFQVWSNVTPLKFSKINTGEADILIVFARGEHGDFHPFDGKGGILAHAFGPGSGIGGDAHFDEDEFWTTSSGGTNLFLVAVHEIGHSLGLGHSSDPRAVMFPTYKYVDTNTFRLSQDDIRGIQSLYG
As to the kind of experiment: FRET peptide inhibition assay, cdMMP-12 D4. The class given is biochemical. The conditions noted are these: cdMMP-12 D4, FRET peptide, 31-500 nM Fab. As to the method:
as §2

Data set [5] concerns the target T1, cdMMP-12 wt. As to the kind of experiment: Fibronectin proteolysis inhibition, cdMMP-12 wt (western blot). It counts as biochemical. The conditions noted are these: for Fibronectin remaining after cdMMP-12 wt hydrolysis: 6 μM Fab, 350 nM wt cdMMP-12, 200 nM fibronectin, 37° C.; for Inhibition Fibronectin IC50: toward cdMMP-12 wild type, 200 nM enzyme, 200 nM fibronectin. As to the method:
Inhibition tests with macromolecular substrates 10 μg/mL FITC-conjugated elastin (AnaSpec) was incubated with 7 nM cdMMP-12 D4/wt and 2-2000 nM purified Fab in 50 mM Tris-HCl, 150 mM NaCl, 5 mM CaCl2), 100 μM ZnCl2 pH 7.5. Generated fluorescent signals were measured at 12 h with λEx of 490 nm and λEm of 520 nm. […] The samples were separated on 5% non-reducing SDS-PAGE and analyzed by western blotting with anti-Fibronectin antibody (Abcam) and chemiluminescent substrate (Thermo Scientific). […] Assays without cdMMP-12s or Fabs were performed as controls.
For orientation: Immunoblotting shows a protein as a band on a membrane.

Data set [6] concerns the target cdMMP-9. The data set is described as follows: Bio-layer interferometry on cdMMP-9. It counts as binding. The conditions noted are these: for Kd: read-out: KD toward cdMMP-9. Background: BLI is a label-free optical method that tracks binding on a fibre tip over time.
Sequence of cdMMP-9 (P14780 with tags, fused parts or gaps DEL216-390 limits assumed): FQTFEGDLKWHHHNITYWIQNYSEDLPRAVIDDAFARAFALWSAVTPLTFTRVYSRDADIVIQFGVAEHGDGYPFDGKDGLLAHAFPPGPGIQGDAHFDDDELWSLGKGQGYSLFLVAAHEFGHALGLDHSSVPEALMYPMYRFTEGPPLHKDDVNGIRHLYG
The target in data set [7] is T3, cdMMP-14 (Homo sapiens, UniProt P50281). The data set is described as follows: Bio-layer interferometry on cdMMP-14. It counts as binding. Set-up: human MMP-14 (residue 114-320); hexahistidine (C); made in house; host or cells: E. coli periplasm.
Data set [8] addresses T2, cdMMP-12 mutant D4. As to the kind of experiment: Proteolytic stability of Fabs with cdMMP-12 D4. It counts as physicochemical. The conditions noted are these: 2 μM Fab, 2 μM cdMMP-12 D4, 4 h, 37° C. As to the method:
as §1

Data set [9] deals with T4, MMP-7 (Homo sapiens, UniProt P09237).
T4 construct: purchased AnaSpec
T4 sequence (P09237 95-267): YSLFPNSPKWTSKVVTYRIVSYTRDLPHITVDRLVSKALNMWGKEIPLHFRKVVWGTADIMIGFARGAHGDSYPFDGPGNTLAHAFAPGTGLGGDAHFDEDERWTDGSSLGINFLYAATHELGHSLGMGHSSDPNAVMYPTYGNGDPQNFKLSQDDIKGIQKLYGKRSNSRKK
The data set is described as follows: FRET peptide inhibition assay, MMP-7. It counts as biochemical. The conditions noted are these: listed as LH6. As to the method:
as §2

In data set [10] the target is T3, cdMMP-14. The data set is described as follows: FRET peptide inhibition assay, cdMMP-14 (Example 2). The class given is biochemical. Also on record: human MMP-14 (residue 114-320); hexahistidine (C); made in house; host or cells: E. coli periplasm. As to the method:
as §2

In data set [11] the target is T5, MMP-1 (Homo sapiens, UniProt P03956).
T5 construct: purchased AnaSpec
T5 sequence (P03956 100-469): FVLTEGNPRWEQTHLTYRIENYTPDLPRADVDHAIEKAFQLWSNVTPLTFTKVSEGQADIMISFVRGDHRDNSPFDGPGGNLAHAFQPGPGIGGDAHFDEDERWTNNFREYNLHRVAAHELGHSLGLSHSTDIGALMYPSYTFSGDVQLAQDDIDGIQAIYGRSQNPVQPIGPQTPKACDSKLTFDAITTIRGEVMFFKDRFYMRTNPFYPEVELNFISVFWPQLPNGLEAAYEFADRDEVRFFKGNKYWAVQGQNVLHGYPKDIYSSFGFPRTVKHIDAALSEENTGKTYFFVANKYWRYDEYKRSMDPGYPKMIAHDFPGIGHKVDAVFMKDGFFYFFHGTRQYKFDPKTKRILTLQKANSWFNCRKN
The data set is described as follows: FRET peptide inhibition assay, MMP-1. The class given is biochemical. The conditions noted are these: listed as LH6. As to the method: as §2

In data set [12] the test system is cdMMP-9. The data set is described as follows: FRET peptide inhibition assay, cdMMP-9 (Example 2). It counts as biochemical. As to the method:
as §2

Where two headings read alike, the source gives them in different places.

T1 sequence (P39900 106-263): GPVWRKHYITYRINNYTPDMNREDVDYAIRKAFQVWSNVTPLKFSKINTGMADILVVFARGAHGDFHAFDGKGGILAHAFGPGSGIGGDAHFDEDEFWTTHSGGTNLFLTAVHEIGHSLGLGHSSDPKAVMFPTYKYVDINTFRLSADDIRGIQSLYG

B1: Fab LG4: anti-MMP-12 antibody clone; VL SEQ ID NO:112, VH SEQ ID NO:114, CDR-H3 SEQ ID NO:117 (antibody, V domains shown)
VH: EVQLVESGGGLVQPGGSLRLSCAASGFNLYYSYMHWVRQAPGKGLEWVASISSYYGYTSYADSVKGRFTISADTSKNTAYLQMNSLRAEDTAVYYCARSPIVYYELFMFIDMGAQGWKYGMDYWGQGTLVTVSSAS
VL: DIQMTQSPSSLSASVGDRVTITCRASQSVSSAVAWYQQKPGKAPKLLIYSASSLYSGVPSRFSGSRSGTDFTLTISSLQPEDFATYYCQQTFYPFTFGQGTKVEIKR
Take B1: the “Fab remained intact after exposure to cdMMP-12 wt” value in data set [1] was determined as 54%. For the same molecule, in data set [2] (listed as LG4), the “Inhibition FRET peptide” value is given as “non-”. In addition, the “Inhibition of modified TEM-1 (PLGLEEAK) proteolysis” value in [3] was “significant inhibition”. Further, the “Type of inhibition (Lineweaver-Burk)” value in [4] was “substrate competitive manner”. Further, the “Fibronectin remaining after cdMMP-12 wt hydrolysis” value in data set [5] is “significant amounts of fibronectin remained”. For the same molecule, in data set [5], the “Inhibition Fibronectin IC50” value is listed as “Inhib”. Besides, the Kd (usually the constant that tells how readily two partners part at equilibrium) in [6] (listed as LG4) was 720 nM; in [7] (listed as LG4, read-out: KD toward cdMMP-14) it was about 700 nM. Besides, the “Degradation of Fab by cdMMP-12 D4” value in [8] was “no significant degradation”.

B2: Fab LH6: anti-MMP-12 antibody clone; VL SEQ ID NO:118, VH SEQ ID NO:120, CDR-H3 SEQ ID NO:123 (antibody, V domains shown)
VH: EVQLVESGGGLVQPGGSLRLSCAASGFNLSYSYMHWVRQAPGKGLEWVASIYPSYGSTYYADSVKGRFTISADTSKNTAYLQMNSLRAEDTAVYYCARDLEESLPKRARTAVSKELESVPYVMDYWGQGTLVTVSSAS
VL: DIQMTQSPSSLSASVGDRVTITCRASQSVSSAVAWYQQKPGKAPKLLIYSASSLYSGVPSRFSGSRSGTDFTLTISSLQPEDFATYYCQQSSHYASPPITFGQGTKVEIKR
In the case of B2, the “Fab remained intact after exposure to cdMMP-12 wt” value in data set [1] is 56%. Further, in [9], the “Inhibition of MMP-7 (selectivity)” value was “did not inhibit and non-”. Also, in [2] (listed as LH6), the “Inhibition FRET peptide” value is reported as “non-”. In addition, the “Type of inhibition (Lineweaver-Burk)” value in [4] is “substrate competitive manner”. The “K1 fold, cdMMP-14 compared with cdMMP-12 mutant D4” value in data set [10] was “(52-fold)”. For the same molecule, in data set [11], the “Inhibition of MMP-1 (selectivity)” value is “did not inhibit and non-”. Also, in [5], the “Fibronectin remaining after cdMMP-12 wt hydrolysis” value was “significant amounts of fibronectin remained” and the “Inhibition Fibronectin IC50” value was “Inhib”. For the same molecule, in data set [6], the “KD fold, cdMMP-9 compared with cdMMP-12 wt” value is given as “(2.2-fold),” and the dissociation constant Kd was found to be 950 nM. In data set [7], the “KD fold, cdMMP-14 compared with cdMMP-12 wt” value was “(1.1-fold),”. The “Degradation of Fab by cdMMP-12 D4” value in data set [8] was “no significant degradation”. For the same molecule, in data set [12], the “K1 fold, cdMMP-9 compared with cdMMP-12 mutant D4” value was “(16-fold)”. Further, the Ki in [12] (FRET peptide, read-out: K1 toward cdMMP-9) was 1500 nM.

The values are drawn from patent publication US11332546B2, “Protease inhibitory antibodies and methods of use thereof” (The Regents of The University of California, priority 2019, dated 2022).
